Laboratory results reported in PMC2064659 (The Journal of Cell Biology, 2007).

Target: T1, GST-SH3^SGEF (amino acids 789–850) (UniProt Q96DR7 789-850)
T1 sequence (looked up): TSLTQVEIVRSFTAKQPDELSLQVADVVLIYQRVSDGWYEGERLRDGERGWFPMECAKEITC
Test: pull-down

B1: ICAM1–intracellular tail peptide, biotinylated (peptide)
peptide: GRQRKIKKYRLQQAQKGTPMKPNTQATPP
HELM: PEPTIDE1{[O=C1N[C@H]2[C@H](CS[C@H]2CCCCC(=O)[*:2])N1].G.R.Q.R.K.I.K.K.Y.R.L.Q.Q.A.Q.K.G.T.P.M.K.P.N.T.Q.A.T.P.P}$$$$V2.0
SMILES: CC[C@H](C)[C@H](NC(=O)[C@H](CCCCN)NC(=O)[C@H](CCCNC(=N)N)NC(=O)[C@H](CCC(N)=O)NC(=O)[C@H](CCCNC(=N)N)NC(=O)CNC(=O)CCCC[C@@H]1SC[C@@H]2NC(=O)N[C@@H]21)C(=O)N[C@@H](CCCCN)C(=O)N[C@@H](CCCCN)C(=O)N[C@@H](Cc1ccc(O)cc1)C(=O)N[C@@H](CCCNC(=N)N)C(=O)N[C@@H](CC(C)C)C(=O)N[C@@H](CCC(N)=O)C(=O)N[C@@H](CCC(N)=O)C(=O)N[C@@H](C)C(=O)N[C@@H](CCC(N)=O)C(=O)N[C@@H](CCCCN)C(=O)NCC(=O)N[C@H](C(=O)N1CCC[C@H]1C(=O)N[C@@H](CCSC)C(=O)N[C@@H](CCCCN)C(=O)N1CCC[C@H]1C(=O)N[C@@H](CC(N)=O)C(=O)N[C@H](C(=O)N[C@@H](CCC(N)=O)C(=O)N[C@@H](C)C(=O)N[C@H](C(=O)N1CCC[C@H]1C(=O)N1CCC[C@H]1C(=O)O)[C@@H](C)O)[C@@H](C)O)[C@@H](C)O
B1: binds.
